Substitutions are numbered along the chain they refer to. Names may count otherwise.

The target in data set [1] is CFluc-E2C (six-finger zinc finger E2C) (synthetic). The experiment in a line: with Pum2-Aart hairpin-guide and 1 nM target ssRNA or ssDNA; G to T target mutation gives background. The following applies: tags: N-terminal CFluc(398-550) split luciferase fragment; hairpin with ssDNA guide tail.
The target of data set [2] is Aart-NFluc (six-finger zinc finger Aart) (synthetic). Nature of the data set: with E2C-HER2 100-118 hairpin-guide and 1 nM HER2 transcript. The settings on record: tags: N-terminal His tag, C-terminal NFluc(2-416) split luciferase fragment; hairpin with ssDNA guide tail.
Chain of Aart-NFluc (six-finger zinc finger Aart) (synthetic) (chain, as listed by the source): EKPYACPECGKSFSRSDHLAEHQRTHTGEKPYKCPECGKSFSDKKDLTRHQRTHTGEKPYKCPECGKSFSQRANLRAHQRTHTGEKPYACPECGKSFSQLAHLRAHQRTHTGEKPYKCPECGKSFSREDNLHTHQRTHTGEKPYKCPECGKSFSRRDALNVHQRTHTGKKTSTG
Data set [3] shares this target. Nature of the data set: competition; competes with E2C-1-Aart in split-luciferase assay with CFluc-E2C; IC50 only in figure; reference hairpin. The following applies: tags: N-terminal His tag, C-terminal NFluc(2-416) split luciferase fragment.
Data set [4] shares this target. Nature of the data set: competition; single A to T bp substitution in finger 3 triplet. The settings on record: tags: N-terminal His tag, C-terminal NFluc(2-416) split luciferase fragment; hairpin.
Data set [5] has as its target CFluc-E2C (six-finger zinc finger E2C) (synthetic). The experiment in a line: with VEGF81-99-Aart hairpin-guide and 1 nM VEGF transcript. The settings on record: tags: N-terminal CFluc(398-550) split luciferase fragment; hairpin with ssDNA guide tail.
The target is the same in data set [6]. Nature of the data set: with HER2 122-140-Aart hairpin-guide and 1 nM HER2 transcript. The settings on record: tags: N-terminal CFluc(398-550) split luciferase fragment; hairpin with ssDNA guide tail.
The target in data set [7] is Aart-NFluc (six-finger zinc finger Aart) (synthetic). Nature of the data set: with Pum1-E2C hairpin-guide and 1 nM target ssRNA or ssDNA; G to T target mutation gives background. The settings on record: tags: N-terminal His tag, C-terminal NFluc(2-416) split luciferase fragment; hairpin with ssDNA guide tail.
Data set [8] shares this target. The experiment in a line: with VEGF60-78-E2C hairpin-guide and 1 nM VEGF transcript. The following applies: tags: N-terminal His tag, C-terminal NFluc(2-416) split luciferase fragment; hairpin with ssDNA guide tail.

Chain of CFluc-E2C (six-finger zinc finger E2C) (synthetic) (chain, as listed by the source): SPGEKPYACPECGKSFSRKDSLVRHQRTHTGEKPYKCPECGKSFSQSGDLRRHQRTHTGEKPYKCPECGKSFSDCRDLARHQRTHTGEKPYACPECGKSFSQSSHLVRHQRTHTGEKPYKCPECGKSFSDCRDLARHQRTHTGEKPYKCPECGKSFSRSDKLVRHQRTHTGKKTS

B1: Pum1-E2C hairpin-guide (dsDNA)
DNA: GAGGGGCCGGAGCCGCAGTGCGTCCTCGCACTGCGGCTCCGGCCCCTCAAAACTATATACACCATG
On to B1, for which the activity in data set [1] is 4.5 fold luminescence over background.

B2: HER2 122-140-Aart hairpin-guide (dsDNA)
DNA: CCCTTGCAGCGGGCACAGCAAAACTCCGGGCTTTTCCCTACATGCTCCTGCATGTAGGGAAAAGCCCGGAG
For B2, the activity in data set [2] is 4.3 fold luminescence over hairpin-guides alone.

B3: Aart competitor hairpin, consensus (dsDNA)
DNA: GCATGTAGGGAAAAGCCCGGCGTCCTCGCCGGGCTTTTCCCTACATGC
Consider B3, for which the binding result in data set [3] is recorded as “binds”.

B4: Aart competitor hairpin, consensus ATA (dsDNA)
DNA: B3 DNA with A13T, T36A
B4: in data set [4], the binding signal was 60 fold reduced vs consensus hairpin.

B5: VEGF60-78-E2C hairpin-guide (dsDNA)
DNA: GAGGGGCCGGAGCCGCAGTGCGTCCTCGCACTGCGGCTCCGGCCCCTCAAAAGAAGATGTCCACCAGGGTC
As to B5, the activity in data set [5] is 39 fold luminescence.

B6: Aart competitor hairpin, designed ATA (dsDNA)
DNA: GCATGTAGAGAATAACCAGGCGTCCTCGCCTGGTTATTCTCTACATGC
B6: the binding signal in data set [4] was 20 fold reduced vs designed hairpin.

B7: E2C-HER2 100-118 hairpin-guide (dsDNA)
DNA: GAGGGGCCGGAGCCGCAGTGCGTCCTCGCACTGCGGCTCCGGCCCCTCAAAACGGCACAGACAGTGCGCGT
Consider B7, for which the activity in data set [6] was 4.3 fold luminescence over hairpin-guides alone.

B8: Pum2-Aart hairpin-guide (dsDNA)
DNA: GCCGCTATATCAAAAAACTCCGGGCTTTTCCCTACATGCTCCTGCATGTAGGGAAAAGCCCGGAG
B8: the activity in data set [7] is 4.5 fold luminescence over background.

B9: VEGF81-99-Aart hairpin-guide (dsDNA)
DNA: GATCTCATCAGGGTACTCCAAAACTCCGGGCTTTTCCCTACATGCTCCTGCATGTAGGGAAAAGCCCGGAG
In data set [8], B9 showed an activity of 39 fold luminescence.
